According to US20260242419A1, “A CYCLIC PEPTIDE FOR TRAPPING INTERLEUKIN-1 BETA” (Merck Sharp & Dohme LLC, priority 2023, published 2026):
Starred links: 1 amine or outer side, 2 acyl side, 3 side chain; linkers in the order of their positions; H or OH if unused. Non-standard residues stand in square brackets, D forms with d. orbOHorPhe4COOH = 4-[(1R,2S)-2-amino-2-carboxy-1-hydroxy-ethyl]benzoic acid, O=C([C@@H](N[*:1])[C@H](O)c1ccc(C(=O)[*:3])cc1)[*:2]; Phe4PyrimOMe = (S)-2-amino-3-(4-(2-methoxypyrimidin-5-yl)phenyl)propanoic acid, COc1ncc(-c2ccc(C[C@H](N[*:1])C(=O)[*:2])cc2)cn1; Phe4ImMe = (S)-2-amino-3-(4-(1-methyl-1H-imidazol-4-yl)phenyl)propanoic acid, Cn1cnc(-c2ccc(C[C@H](N[*:1])C(=O)[*:2])cc2)c1; Phe42ImMe = (S)-2-amino-3-(4-(1-methyl-1H-imidazol-2-yl)phenyl)propanoic acid, Cn1ccnc1-c1ccc(C[C@H](N[*:1])C(=O)[*:2])cc1; dProc3CH24Pal = (2R,3S)-3-(4-pyridylmethyl)pyrrolidine-2-carboxylic acid, O=C([C@H]1[C@@H](Cc2ccncc2)CCN1[*:1])[*:2]; Phe4Pyrim = (S)-2-amino-3-(4-(pyrimidin-5-yl)phenyl)propanoic acid, O=C([C@H](Cc1ccc(-c2cncnc2)cc1)N[*:1])[*:2]; 4PyrimAla = (2S)-2-amino-3-pyrimidin-4-yl-propanoic acid, O=C([C@H](Cc1ccncn1)N[*:1])[*:2]; Trp(4-Cl)(βS-Me) = C[C@@H](c1c[nH]c2cccc(Cl)c12)[C@H](N)C(=O)O; dPro(4R-(4-pyridylmethyl)) = O=C(O)[C@H]1C[C@@H](Cc2ccncc2)CN1; Trp(βS-Me,4-F) = C[C@@H](c1c[nH]c2cccc(F)c12)[C@H](N)C(=O)O; Bip(4'-COOH) = N[C@@H](Cc1ccc(-c2ccc(C(=O)O)cc2)cc1)C(=O)O; Ala(1-bicyclo(1.1.1)pentyl) = N[C@@H](CC12CC(C1)C2)C(=O)O; Phe(4-(4-pyridyl)) = N[C@@H](Cc1ccc(-c2ccncc2)cc1)C(=O)O; dPro(4R-Bzl(4-F)) = O=C(O)[C@H]1C[C@@H](Cc2ccc(F)cc2)CN1; dPro(3S-(4-F-Bn)) = O=C(O)[C@@H]1NCC[C@@H]1Cc1ccc(F)cc1; 1Nal(3S-Me) = C[C@@H](c1cccc2ccccc12)[C@H](N)C(=O)O; Ala(morpholin-4-yl) = N[C@@H](CN1CCOCC1)C(=O)O; Ala(piperazin-1-yl) = N[C@@H](CN1CCNCC1)C(=O)O; Ala(pyrimidin-5-yl) = N[C@@H](Cc1cncnc1)C(=O)O; Phe(4-COOH) = N[C@@H](Cc1ccc(C(=O)O)cc1)C(=O)O; Bip = N[C@@H](Cc1ccc(-c2ccccc2)cc1)C(=O)O; Pro(cis-4-F) = O=C(O)[C@@H]1C[C@H](F)CN1; Ala(4-THP) = N[C@@H](CC1CCOCC1)C(=O)O; d(αMeD) = C[C@@](N)(CC(=O)O)C(=O)O; 4Pal = N[C@@H](Cc1ccncc1)C(=O)O; aThr = C[C@H](O)[C@H](N)C(=O)O; Dab = NCC[C@H](N)C(=O)O; Aib = CC(C)(N)C(=O)O

Biological target: Recombinant human IL-1β (BioLegend 579404) (human, UniProt P01584 117-269)
Experiment: cell-based or functional assay

Row | Binder | MRC5 IC50 [nM]
1 | cyclo([Bip(4'-COOH)][Ala(1-bicyclo(1.1.1)pentyl)][Phe(4-COOH)]G[Pro(cis-4-F)][Trp(βS-Me,4-F)][Aib]SW[d(αMeD)][4PyrimAla]Q[Dab]G[dPro(4R-(4-pyridylmethyl))]) (ring closure inferred) [SEQ ID NO 285] | 0.013
2 | cyclo([Bip(4'-COOH)][4Pal][Phe(4-COOH)]G[Pro(cis-4-F)][Trp(βS-Me,4-F)][Aib]SW[d(αMeD)][Ala(piperazin-1-yl)]Q[Dab]G[dPro(3S-(4-F-Bn))]) (ring closure inferred) [SEQ ID NO 287] | 0.011
3 | cyclo([Bip(4'-COOH)][Ala(1-bicyclo(1.1.1)pentyl)][Phe(4-COOH)]G[Pro(cis-4-F)][Trp(βS-Me,4-F)][Aib]SW[d(αMeD)][4PyrimAla]Q[Dab]G[dProc3CH24Pal]) (ring closure inferred) [SEQ ID NO 284] | 0.015
4 | cyclo([Phe4Pyrim][4Pal][Phe(4-COOH)]G[Pro(cis-4-F)][Trp(βS-Me,4-F)][Aib]SW[d(αMeD)][Ala(pyrimidin-5-yl)]Q[Dab]G[dPro(3S-(4-F-Bn))]) (ring closure inferred) [SEQ ID NO 282] | 0.014
5 | cyclo([Bip(4'-COOH)][4Pal][Phe(4-COOH)]G[Pro(cis-4-F)][Trp(βS-Me,4-F)][Aib]SW[d(αMeD)][Ala(morpholin-4-yl)]Q[Dab]G[dPro(3S-(4-F-Bn))]) (ring closure inferred) [SEQ ID NO 286] | 0.01
6 | cyclo(Y[4Pal][Phe(4-COOH)]G[Pro(cis-4-F)][Trp(βS-Me,4-F)][Aib]SW[d(αMeD)][Ala(pyrimidin-5-yl)]Q[Dab]G[dPro(3S-(4-F-Bn))]) (ring closure inferred) [SEQ ID NO 278] | 0.021
7 | cyclo([Bip][4Pal][Phe(4-COOH)]G[Pro(cis-4-F)][Trp(4-Cl)(βS-Me)][Aib]SW[d(αMeD)][Ala(pyrimidin-5-yl)]Q[Dab]G[dPro(4R-(4-pyridylmethyl))]) (ring closure inferred; not fully specified (N-terminus); printed as cyclic, Bip-4Pal-Phe4COOH-G-Proc4F-SbMeW4Cl-Aib-S-W-daMeD-PyrimAla-Q-Dab-G-dProc4CH24Pal) [SEQ ID NO 292] | 0.015
8 | cyclo([Phe4F][4Pal][Phe(4-COOH)]G[Pro(cis-4-F)][Trp(βS-Me,4-F)][Aib]SW[d(αMeD)][Ala(pyrimidin-5-yl)]Q[Dab]G[dPro(3S-(4-F-Bn))]) (ring closure inferred) [SEQ ID NO 277] | 0.023
9 | cyclo([Bip][4Pal][Phe(4-COOH)]G[Pro(cis-4-F)][1Nal(3S-Me)][Aib]SW[d(αMeD)][aThr]Q[Dab]G[dPro(4R-(4-pyridylmethyl))]) (ring closure inferred) [SEQ ID NO 288] | 0.019
10 | cyclo([Bip][4Pal][Phe(4-COOH)]G[Pro(cis-4-F)][1Nal(3S-Me)][Aib]SW[d(αMeD)][Ala(pyrimidin-5-yl)]Q[Dab]G[dPro(4R-(4-pyridylmethyl))]) (ring closure inferred) [SEQ ID NO 291] | 0.018
11 | cyclo([Bip][4Pal][Phe(4-COOH)]G[Pro(cis-4-F)][1Nal(3S-Me)][Aib]SW[d(αMeD)][Ala(4-THP)]Q[Dab]G[dPro(4R-(4-pyridylmethyl))]) (ring closure inferred) [SEQ ID NO 290] | 0.018
12 | cyclo([Phe4ImMe][4Pal][Phe(4-COOH)]G[Pro(cis-4-F)][Trp(βS-Me,4-F)][Aib]SW[d(αMeD)][Ala(pyrimidin-5-yl)]Q[Dab]G[dPro(3S-(4-F-Bn))]) (ring closure inferred) [SEQ ID NO 279] | 0.013
13 | cyclo([Phe42ImMe][4Pal][Phe(4-COOH)]G[Pro(cis-4-F)][Trp(βS-Me,4-F)][Aib]SW[d(αMeD)][Ala(pyrimidin-5-yl)]Q[Dab]G[dPro(3S-(4-F-Bn))]) (ring closure inferred) [SEQ ID NO 280] | 0.016
14 | cyclo([Phe(4-(4-pyridyl))][4Pal][Phe(4-COOH)]G[Pro(cis-4-F)][Trp(βS-Me,4-F)][Aib]SW[d(αMeD)][Ala(pyrimidin-5-yl)]Q[Dab]G[dPro(3S-(4-F-Bn))]) (ring closure inferred) [SEQ ID NO 283] | 0.016
15 | cyclo([Bip(4'-COOH)][4Pal][orbOHorPhe4COOH]G[Pro(cis-4-F)][Trp(βS-Me,4-F)][Aib]SW[Aib][Ala(pyrimidin-5-yl)]Q[Dab]G[dPro(4R-Bzl(4-F))]) (ring closure inferred) [SEQ ID NO 275] | 0.018
16 | cyclo([Phe4PyrimOMe][4Pal][Phe(4-COOH)]G[Pro(cis-4-F)][Trp(βS-Me,4-F)][Aib]SW[d(αMeD)][Ala(pyrimidin-5-yl)]Q[Dab]G[dPro(3S-(4-F-Bn))]) (ring closure inferred) [SEQ ID NO 281] | 0.012
17 | cyclo([Bip][4Pal][Phe(4-COOH)]G[Pro(cis-4-F)][Trp(4-Cl)(βS-Me)][Aib]SW[d(αMeD)][aThr]Q[Dab]G[dPro(4R-(4-pyridylmethyl))]) (ring closure inferred) [SEQ ID NO 289] | 0.015
18 | cyclo([Bip(4'-COOH)][4Pal][Phe(4-COOH)]G[Pro(cis-4-F)][Trp(βS-Me,4-F)][Aib]EW[Aib]HQ[Dab]G[dPro(4R-Bzl(4-F))]) (ring closure inferred) [SEQ ID NO 276] | 0.017
19 | cyclo([Bip][4Pal][Phe(4-COOH)]G[Pro(cis-4-F)][Trp(βS-Me,4-F)][Aib]SW[d(αMeD)][aThr]Q[Dab]G[dPro(4R-(4-pyridylmethyl))]) (ring closure inferred; not fully specified (N-terminus); printed as cyclic, Bip-4Pal-Phe4COOH-G-Proc4F-SbMeW4F-Aib-S-W-daMeD-alT-Q-Dab-G-dProc4CH24Pal) [SEQ ID NO 293] | 0.01
